Results reported in the RNAGym collection of RNA variant scans (doi:10.7554/elife.90254).

B1: LINE1-full (parent)
chain: UACGUAGGUGGUUUUCCCCUGAUAGUGCUAAGGGGGCCUGGAAGUUUGGACUGGGCAGAGCUCAACACAGCGUGGCAAAGUGGCUGUGGCUAGACUGCCUCUCUGGAUUCCUCGUCACUCAGCAGGGCAUCUCUGAGAGAAAUGCC

Variants of: B1
Test: self-cleavage, relative activity (ratio to wild type); higher = more cleavage; in vitro, sequencing; the parent is a self-cleaving ribozyme

Row | Variant | self-cleavage
1 | G33C U100C | 1.63
2 | U62A U104C | 0.1
3 | A140C | 0.65
4 | A30U C113U | 0.88
5 | U14A C51U | 0.97
6 | A59U A129C | 1.15
7 | U46C U87G | 0.55
8 | U47C A124C | 1.31
9 | U26C C123U | 1.06
10 | A79C | 1.57
11 | A42G A136U | 1.4
12 | U5C U100C | 1.52
13 | U29C A43U | 1.18
14 | U29C A43G | 1.29
15 | U46C G72A | 0.92
16 | U85G C128U | 0.39
17 | A22G U52C | 1.56
18 | A67U G88A | 0.03
19 | A65G U109C | 0.06
20 | U46A U100C | 1.75
21 | U85C U112C | 0.18
22 | G106A G135U | 1.88
23 | U20C A22G | 1.04
24 | G82A G114C | 3

Row | Variant | self-cleavage
25 | G44U | 1.56
26 | A43U U52A | 1.04
27 | G8A U87C | 0.19
28 | U26C U108A | 1.5
29 | A69G A79G | 0.31
30 | G54A G125U | 0.69
31 | U108A G114A | 1.09
32 | G35C A67G | 0.22
33 | U46C A67C | 0.05
34 | U46G A79G | 1.23
35 | G4U U134A | 1.07
36 | U13C C131U | 1.79
37 | C110U A117G | 2.38
38 | U47A A78G | 0.29
39 | A79G C98G | 0.12
40 | A31U G34A | 0.56
41 | A77C A140G | 1.16
42 | A6U U100A | 0.52
43 | U47A C90U | 0.03
44 | G60A U81A | 0.02
45 | A78U U143C | 1.31
46 | C19U A67U | 0.1
47 | A22U A24G | 1.95
48 | U15C A117G | 1.83

Row | Variant | self-cleavage
49 | A59G U81C | 0.09
50 | G41U U62C | 0.04
51 | U5A A43G | 0.76
52 | U13C G82A | 0.72
53 | A67U U73A | 0.05
54 | U20A C28U | 1.3
55 | U96A C99U | 0.03
56 | A77G G93U | 0.05
57 | U5C A31C | 0.75
58 | A59U U62C | 0.06
59 | U87C C90U | 0.07
60 | C103A A129G | 1.59
61 | G93A U108C | 0.03
62 | U1C G10A | 0.95
63 | C84U A141G | 0.14
64 | A30U A142G | 1.28
65 | A69C A141G | 0.07
66 | A64G C146U | 0.24
67 | C101U U132A | 2.01
68 | U1A A31G | 1.26
69 | C61U A65C | 0.03
70 | U29C A121G | 1.43
71 | A22G U115A | 1.52
72 | C84U A121U | 0.11

Row | Variant | self-cleavage
73 | C99A U115C | 0.84
74 | C61A U104C | 0.04
75 | U39C A121G | 1.67
76 | U1C U91C | 0.39
77 | C38U A136U | 1.08
78 | G7A U87A | 0.04
79 | A64G U115G | 0.35
80 | A57C U96A | 0.01
81 | G11A A124G | 0.85
82 | U13A A138G | 1.22
83 | A117U U130A | 1.55
84 | G60U U91C | 0.01
85 | U46G G60C | 0
86 | U96C U130A | 0.12
87 | C118U A124U | 1.04
88 | C3U A30G | 1.75
89 | U87C C103A | 0.1
90 | C37G A94G | 0.32
91 | A22C U119A | 2.09
92 | U5A G106A | 1.14
93 | U12C U87A | 0.06
94 | C3U A22G | 0.95
95 | U14C G21A | 1.39
96 | A24G G74A | 0.93

Row | Variant | self-cleavage
97 | A43U C98G | 0.06
98 | U14G A121U | 0.95
99 | U12A C76U | 1.23
100 | U9C U130C | 1.3
101 | U47C A50U | 1.5
102 | U100A U109A | 0.76
103 | U62A A141G | 0.05
104 | A67G U85C | 0.1
105 | U20A U62C | 0.06
106 | G32A C71U | 0.91
107 | A78G U119G | 1.04
108 | U108C U130A | 2.75
109 | U87C U100A | 0.1
110 | U12G U108C | 1.52
111 | C19U U143C | 0.98
112 | C68U A107G | 0.12
113 | U108C G139A | 0
114 | U5C A77G | 1.49
115 | U62A C120U | 0.02
116 | C103U A124G | 1.56
117 | A43C U109C | 0.26
118 | U13C C68U | 0.17
119 | U20A U130A | 0.32
120 | C19U A107G | 1.41

Row | Variant | self-cleavage
121 | A59G A107U | 0.04
122 | G60A U62C | 0.04
123 | C16A U52C | 0.69
124 | A65U U85G | 0.1
125 | U39C U96A | 0.08
126 | U132C A141U | 0.63
127 | A94G A124U | 0.36
128 | U12A U45G | 1.33
129 | G21A A50G | 0.71
130 | U9A U115A | 1.09
131 | A2U U112C | 1.4
132 | U15A U143C | 1.26
133 | U13A U119A | 1.06
134 | A59G C95U | 0.14
135 | C28U C38U | 1.06
136 | U12C A24C | 1.61
137 | U1A C84U | 0.22
138 | G35A U100A | 0.31
139 | A42G U96G | 0
140 | C66U A92G | 0.02
141 | U45A U143A | 1.21
142 | U100C A117U | 1.63
143 | A43G G89U | 0.04
144 | G114A C116U | 0.76

Row | Variant | self-cleavage
145 | A67U U100C | 0.27
146 | A77U U87A | 0.05
147 | U47C U81G | 1.13
148 | U1A U13C | 0.91
149 | U52A G137U | 1.06
150 | A92C A138G | 0.14
151 | A57U G75A | 0.03
152 | A64U G114A | 0.41
153 | U9C C113U | 1.08
154 | U12G A140C | 0.48
155 | A2G U130A | 1.72
156 | A6U U20A | 1.21
157 | G89U U134G | 0.04
158 | A57G A92U | 0.3
159 | U26G A77G | 2.53
160 | A67U U81C | 0.13
161 | A31G C37U | 1.6
162 | U91A A124U | 0.48
163 | C90U U130C | 0.04
164 | G49A A69G | 0.36
165 | U81A G114C | 2.67
166 | G36C U102C | 1.08
167 | U12C A64G | 0.28
